Data reported in the nanobody polyreactivity screen of Harvey et al. (2022).

assay: yeast display, Sf9 membrane polyspecificity reagent, FACS + sequencing; frameworks hold sequencing errors
Summary of the method: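 Nanobodies from a synthetic yeast display library (Saccharomyces cerevisiae BJ5465), induced 36–48 hours with galactose, were stained 1 hour at 4 °C with 10% biotinylated, detergent-solubilized Sf9 membrane reagent, enriched on streptavidin microbeads, then FACS-sorted. Anti-HA (expression) and streptavidin (reagent binding) fluorescence set low and high (top ~1%) gates. Polyreactivity labels come from the gate of origin. Genes were colony-PCR amplified, MiSeq 2 × 250 sequenced and filtered by CDR length.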

Q: With “QVQLVESGGGLVQAGGILRISCAASGRNLSRNAMGWYRQAPGKERELVAAISRSGSRTYYADSVKGRFTISRDNAKNSVYLLMNSLKPEDTAVYYCNAESYLSGWWYDYWGQGTQVTVSS” as the sequence, how does the “polyreactivity (PSR sort gate)” value read?
A: high polyreactivity

Q: Which “polyreactivity (PSR sort gate)” value does the source give for “QVQLVESGGGLVQAGGILRISSDSSGSIFTFYAMGCYRQEPGKERELFAAISYGGGITYYADSVKGRFSISRDNAKNTVYLQMNSLKPEDTAVFYCAGDDGYYNLYFDYDYWGQGTQVTVSS” here?
A: low polyreactivity

Q: Which “polyreactivity (PSR sort gate)” value does the source give for “QVQLVESGGGLVQAGGILRLICAASGFIFLGYALGWYRQAPGTERELVAAISSDSDKNYADSVKGRFTISRDNAKNTVYLQMNILKPEDTAVYYCIADIDSYREMDYWGQGTQVTVSS” here?
A: low polyreactivity

Q: For “QVQLVESGGGLVQAGGILRLRCAASGLTFVYYAMGWYRQAPGKERELVAGITSRGGRTYYADSVKGRFTISRDNAKNTVYLQMNSLKPEDTAGYYCNAVDRYNRFDYWGQGTQVTVSS”, which “polyreactivity (PSR sort gate)” value is on record?
A: high polyreactivity

Q: With “QVQLVESGGGLVQAGGILRLSCAARTFVNYDMGWTRQAHGKERELVAAISSSGGSTNYADSVKGRFTISRDNAKNTVYLQMKSLKPEDTAVYYCAAASRRQVIPAMYYWGQGTQVTVSS” as the sequence, how does the “polyreactivity (PSR sort gate)” value read?
A: high polyreactivity

Q: With “QVQLVESGGGLVQAGGILRLSCAASGFIFTYYAKGWYRQAPGKEMELVAAISWSGGSTYYADSVKGRFTISRDNAKNTVYLLMNSLKPEDTAVYYCAVDLHYSRGPRDAQYRYYYWGHGTQVTVSS” as the sequence, how does the “polyreactivity (PSR sort gate)” value read?
A: high polyreactivity

Q: With “QVQLVESGGGLVQAGGILRLSCAASGFILWYYTMGWSRQAPGKERELVAAISRGGTTYYADSVKGRFTISRDTAKNTVYLQMYSLKPEDTAVYYCNAPYNTHGIVLYDYWGQGTQVTVSS” as the sequence, how does the “polyreactivity (PSR sort gate)” value read?
A: low polyreactivity

Q: For “QVQLVESGGGLVQAGGILRLSCAASGFTIYYYAIGWYRQAPGKERELVASITSGGSTYYADSVKGRFTISRDNAKNSVYLQMNSLKPEDTAVYYCAKTRFHYKEGDYWGQGTQVTVSS”, which “polyreactivity (PSR sort gate)” value is on record?
A: low polyreactivity

Q: Which “polyreactivity (PSR sort gate)” value does the source give for “QVQLVESGGGLVQAGGILRLSCAASGGIIAINAMGWYRQAPGKERELVAAISWGDGITYYADSVKGRFTISRDNEKNTVYLQMNSLKPEDTAVYYCAADEDEYRGGDESWGQGTQVTVSS” here?
A: low polyreactivity

Q: With “QVQLVESGGGLVQAGGILRLSCAASGGTFTYNAMGWYRQAPGKERELVAAITNGGGSTYYADSVKGRFTISRDNAKNTVYLQMNSLKPEDTAVYYCAARWWYYYTEYDYWGQGTQVTVSS” as the sequence, how does the “polyreactivity (PSR sort gate)” value read?
A: low polyreactivity

Q: For “QVQLVESGGGLVQAGGILRLSCAASGILVYNAMGWYIQAPGTERVLVAAISARGGRTYYADSVKGRFTISRDNAKNTVNLQMNSLKPEDTPVYYCATLETTGVNYWGQGTQVTVSS”, which “polyreactivity (PSR sort gate)” value is on record?
A: high polyreactivity

Q: For “QVQLVESGGGLVQAGGILRLSCAASGITFPANAMGWYRQAPGKQRELVAAISSYGGSTYYADSVKGRFTISRDNAKNNVYFQMNSLKPEDTAVYYCAAYLSSLGRKYYYWGQGTQVTVSS”, which “polyreactivity (PSR sort gate)” value is on record?
A: high polyreactivity

Q: With “QVQLVESGGGLVQAGGILRLSCAASGRIFFPNAMGWFRQAPGKERELVASISRGTSTNYADSVKGRVTISRDNAKNTVYLQMHSLKPEDTAVYYCAAKSAPYFGGRSRYAYWGQGTQVTVSS” as the sequence, how does the “polyreactivity (PSR sort gate)” value read?
A: low polyreactivity

Q: Which “polyreactivity (PSR sort gate)” value does the source give for “QVQLVESGGGLVQAGGILRLSCAASGRIFGGNAMGWYRQSPGKEREFVAAITWRGGTTYYADSVKGRFTISRDNAKNTVYLQMNSLKPEDTAVYYCNAMPYTRNTGYDYWGQGTQVTVSS” here?
A: high polyreactivity

Q: With “QVQLVESGGGLVQAGGILRLSCAASGRIFSRYAMGWYRQAPGKERELVAAISSSGTTTYYADSVKARFTISRDNAKNTVYLQMNSLKPEDTAVYYCAVEDRWYGPGYEYWGQGTQVTVSS” as the sequence, how does the “polyreactivity (PSR sort gate)” value read?
A: high polyreactivity

Q: For “QVQLVESGGGLVQAGGILRLSCAASGRIFYGYAMGWYRQAPGKERELVAAISSDGRTYYADSVKGRFTISRDNAKNTVYLQLNSLKPEDTAVYYCAKVPYSGYDYVYWDPSIFEYDYWGQGTQVTVSS”, which “polyreactivity (PSR sort gate)” value is on record?
A: low polyreactivity

Q: With “QVQLVESGGGLVQAGGILRLSCAASGRILTTNAMGWYRQAPGKERELVAAITRSGGRTYYADSVKGRFTISRDNAKNTVYFQMNSLKPEDTAVYYCNAVTTRLSLYDYWGQGTQVTVSS” as the sequence, how does the “polyreactivity (PSR sort gate)” value read?
A: high polyreactivity

Q: Which “polyreactivity (PSR sort gate)” value does the source give for “QVQLVESGGGLVQAGGILRLSCAASGRTFERNAMGWYRQSPGKEREFVAAITEIGGSTYYADSVKGRFTISRDNAKNTVYLQMNSLKPEDTAVYYCAKDGTYSPYDYWGQGTQVTVSS” here?
A: low polyreactivity

Q: With “QVQLVESGGGLVQAGGILRLSCAASGSIFAYYAMGWYRQAPGKERELVAAIDSGGGTSYADSVKGRFTISRDNAKNTVYLQMNRLKPEDTAVYYCNAAGYVVYYRIIAFGYWGQGTQVTVSS” as the sequence, how does the “polyreactivity (PSR sort gate)” value read?
A: low polyreactivity

Q: Which “polyreactivity (PSR sort gate)” value does the source give for “QVQLVESGGGLVQAGGILRLSCAASGSIFPGYAMGWYRQAPGKERELVAAISTSGGSTYADSVKGRFTISRDNAKNTVYLQMNSLKPEDTAVYYCAATYTYTSPVYYSLDGPWPYDYWGQGTQVTVSS” here?
A: low polyreactivity

Q: With “QVQLVESGGGLVQAGGILRLSCAASGSIFPYYAMGWYRQAPGKERELVAGITSGTRTNYADSVKGRFTISRDNAKNTVYLQMNSLKPEDTAVYYCAKEAHIWGYPDYEYWGQGSQVTVSS” as the sequence, how does the “polyreactivity (PSR sort gate)” value read?
A: high polyreactivity

Q: With “QVQLVESGGGLVQAGGILRLSCAASGSIFQRYVMGWYRQAPGKAREFVAGITRSGGSTYYADSVKGRFTISRDNAKNTVYLPMNSQKPEDTAVYNCAAALVRGTYKYDYWGQGTQVTFSS” as the sequence, how does the “polyreactivity (PSR sort gate)” value read?
A: high polyreactivity

Q: For “QVQLVESGGGLVQAGGILRLSCAASGSNFRRNVMWYRQEPGKERELVAGISWRGTSTYYADSVNGRFTISRDNAKNTVYLQMNRLKPEDSAVYYCAALPFVYHRVNEFDYWGQGTQVTVSS”, which “polyreactivity (PSR sort gate)” value is on record?
A: high polyreactivity

Q: Which “polyreactivity (PSR sort gate)” value does the source give for “QVQLVESGGGLVQAGGILRLSCAASGSTFGENAMGWYRQSPGKERELVAAISRASSTDYADSVKGRFTISRDNAKNTVYLQMNSLKPEDTAVYYCAVSIFGSFNYDFYSWGQGTQVTVSS” here?
A: low polyreactivity

Q: Which “polyreactivity (PSR sort gate)” value does the source give for “QVQLVESGGGLVQAGGILRLSCAASGSTFTYNVMGWYRQAPGKERYLVAAISWSGGSTFYADSVKGRFTISRDNAKNTVYLQMNRLKPEDTAVYYCNKDHLVYPSEFYYWGQGTQVTVSS” here?
A: low polyreactivity

Q: Which “polyreactivity (PSR sort gate)” value does the source give for “QVQLVESGGGLVQAGGILRLSCAASGSTLRTNAMGWYRQEPGKDRELVAAISTRGSSTYYADSVKGRFTISRDNAKNTVYLQMNSLQPEDTAVYYCNTAWGPRRGVNVAFDYWGQGTHVTVSS” here?
A: low polyreactivity

Q: For “QVQLVESGGGLVQAGGILRLSCAAYGFTFYSYSMGWYRQAPGKEREFVAAGSTYYADSVKGRFTISRDNAKNTVYLQMNSLKPEDTAVYYCAADPWIYVQSYGFWGQGTQVTVSS”, which “polyreactivity (PSR sort gate)” value is on record?
A: low polyreactivity

Q: With “QVQLVESGGGLVQAGGILRLSCAAYGRTFSRYGMGWYRHAPGKERQLVADITWRGDSTYYADSVKGRFTISRDNAKNTVYLQMNSLKPEDTAVYYCAVYWRSLYYGYTYDYWGQGTQVTLSS” as the sequence, how does the “polyreactivity (PSR sort gate)” value read?
A: high polyreactivity

Q: With “QVQLVESGGGLVQAGGILRLSCASSGSIFGYYAMGWYRQAPGKERELVAAIDSGGGSTYYADSVKERFTISRDNAKNTVYFQMNSLKPEDTAVYYCAAVSYSYPSLLYEYWGQGTQVTVSS” as the sequence, how does the “polyreactivity (PSR sort gate)” value read?
A: low polyreactivity

Q: Which “polyreactivity (PSR sort gate)” value does the source give for “QVQLVESGGGLVQAGGILRLSCASSGSIFVTFAMGWYRQAPGTEREFVAAINWIGGSTYYADSVKGRFTISRDNAKNTVYLQMNSLKPEDTAVYDCGKRYYRRYDYWGQGTQVTVSS” here?
A: high polyreactivity

Q: Which “polyreactivity (PSR sort gate)” value does the source give for “QVQLVESGGGLVQAGGILRLSCASSRFTFTWYAMGWYRPAPGKERELVAAISLSGDRTYYADSVKGRFTISRDNAKNTVYLQMNSLKPEDTAVYYCVFAFEYYYWGQGTQVTVSS” here?
A: low polyreactivity

Q: With “QVQLVESGGGLVQAGGILRLSCDASGRIFRANAMGWYRQAPGKERELVASITYSGGSTYYADSVKGRFTISRDNAKNTVYLPMNSLNPEDTAVYYCARAGISSGGYYYWGQGTQVTVSS” as the sequence, how does the “polyreactivity (PSR sort gate)” value read?
A: low polyreactivity
